± gives the standard deviation of the averaged measurements.
Experiment: total protein half-life in vivo (active degradation + dilution); higher = more stable protein
[1] = E. coli NCM3722 delta-clpP delta-lon delta-hslV, growth: N-lim chemostat, doubling time 6 h
[2] = wild type E. coli NCM3722, growth: C-lim chemostat, doubling time 3 h
[3] = wild type E. coli NCM3722, growth: C-lim chemostat, doubling time 12 h
[4] = wild type E. coli NCM3722, growth: P-lim chemostat, doubling time 12 h
[5] = E. coli NCM3722 delta-lon, growth: N-lim chemostat, doubling time 6 h
[6] = E. coli NCM3722 delta-smpB, growth: N-lim chemostat, doubling time 6 h
[7] = wild type E. coli NCM3722, growth: C-lim chemostat, doubling time 6 h
[8] = wild type E. coli NCM3722, growth: N-lim chemostat, doubling time 6 h
[9] = wild type E. coli NCM3722, growth: N-lim chemostat, doubling time 12 h
[10] = wild type E. coli NCM3722, growth: P-lim chemostat, doubling time 6 h
[11] = E. coli NCM3722 delta-clpP, growth: N-lim chemostat, doubling time 6 h
[12] = E. coli NCM3722 delta-hslV, growth: N-lim chemostat, doubling time 6 h

Row | Sequence | total protein half-life in vivo [1] | total protein half-life in vivo [2] | total protein half-life in vivo [3] | total protein half-life in vivo [4] | total protein half-life in vivo [5] | total protein half-life in vivo [6] | total protein half-life in vivo [7] | total protein half-life in vivo [8] | total protein half-life in vivo [9] | total protein half-life in vivo [10] | total protein half-life in vivo [11] | total protein half-life in vivo [12]
1 | MSELIVSRQQRVLLLTLNRPAARNALNNALLMQLVNELEAAATDTSISVCVITGNARFFAAGADLNEMAEKDLAATLNDTRPQLWARLQAFNKPLIAAVNGYALGAGCELALLCDVVVAGENARFGLPEITLGIMPGAGGTQRLIRSVGKSLASKMVLSGESITAQQAQQAGLVSDVFPSDLTLEYALQLASKMARHSPLALQAAKQALRQSQEVALQAGLAQERQLFTLLAATEDRHEGISAFLQKRTPDFKGR | 5.63 h | 2.67 h | 6.46 h | 6.46 h |  |  |  |  |  |  |  | 
2 | MFKKILFPLVALFMLAGCAKPPTTIEVSPTITLPQQDPSLMGVTVSINGADQRTDQALAKVTRDNQIVTLTASRDLRFLLQEVLEKQMTARGYMVGPNGPVNLQIIVSQLYADVSQGNVRYNIATKADIAIIATAQNGNKMTKNYRASYNVEGAFQASNKNIADAVNSVLTDTIADMSQDTSIHEFIKQNAR [P0ADA5] | 6.32 ± 1.6 h | > 4 h | 12.6 ± 0.17 h | 14.94 ± 0.13 h | 6.15 ± 0.68 h | 5.86 ± 0.59 h | 7.64 ± 0.29 h | 6.36 ± 0.12 h | 13 ± 0.98 h | 6.254 ± 0.035 h |  | 
3 | MDEYSPKRHDIAQLKFLCETLYHDCLANLEESNHGWVNDPTSAINLQLNELIEHIATFALNYKIKYNEDNKLIEQIDEYLDDTFMLFSSYGINMQDLQKWRKSGNRLFRCFVNATKENPASLSC [P0AAR0] | 5.61 ± 0.1 h |  |  |  |  |  |  |  |  |  | 7.07 h | 
4 | MSQRITIDPVTRIEGHLRIDCEIENGVVSKAWASGTMWRGMEEIVKNRDPRDAWMIVQRICGVCTTTHALSSVRAAESALNIDVPVNAQYIRNIILAAHTTHDHIVHFYQLSALDWVDITSALQADPTKASEMLKGVSTWHLNSPEEFTKVQNKIKDLVASGQLGIFANGYWGHPAMKLPPEVNLIAVAHYLQALECQRDANRVVALLGGKTPHIQNLAVGGVANPINLDGLGVLNLERLMYIKSFIDKLSDFVEQVYKVDTAVIAAFYPEWLTRGKGAVNYLSVPEFPTDSKNGSFLFPGGYIENADLSSYRPITSHSDEYLIKGIQESAKHSWYKDEAPQAPWEGTTIPAYDGWSDDGKYSWVKSPTFYGKTVEVGPLANMLVKLAAGRESTQNKLNEIVAIYQKLTGNTLEVAQLHSTLGRIIGRTVHCCELQDILQNQYSALITNIGKGDHTTFVKPNIPATGEFKGVGFLEAPRGMLSHWMVIKDGIISNYQAVVPSTWNSGPRNFNDDVGPYEQSLVGTPVADPNKPLEVVRTIHSFDPCMACAVHVVDADGNEVVSVKVL [P0ACE0] | 5.01 ± 1.1 h | 2.07 ± 0.18 h | 7.59 ± 2.3 h | 10.7 ± 4.1 h |  | 2.6 ± 0.2 h | 4.37 ± 1 h | 3.47 ± 0.036 h | 4.62 h | 4.92 ± 2.1 h | 4.55 ± 1.2 h | 3.87 ± 1.6 h
5 | MAKERALTLEALRVMDAIDRRGSFAAAADELGRVPSALSYTMQKLEEELDVVLFDRSGHRTKFTNVGRMLLERGRVLLEAADKLTTDAEALARGWETHLTIVTEALVPTPAFFPLIDKLAAKANTQLAIITEVLAGAWERLEQGRADIVIAPDMHFRSSSEINSRKLYTLMNVYVAAPDHPIHQEPEPLSEVTRVKYRGIAVADTARERPVLTVQLLDKQPRLTVSTIEDKRQALLAGLGVATMPYPMVEKDIAEGRLRVVSPESTSEIDIIMAWRRDSMGEAKSWCLREIPKLFNGK | 5.43 ± 0.44 h | 3.01 ± 0.2 h | 11.2 ± 0.74 h | 11.5 ± 0.97 h | 5.85 ± 0.25 h | 5.34 ± 0.25 h | 5.658 ± 0.043 h | 5.54 ± 0.4 h | 10.9 ± 0.25 h | 6.09 ± 0.32 h | 5.71 ± 0.84 h | 5.26 ± 0.14 h
6 | MARLFTLSESKYYLMALDAGTGSIRAVIFDLEGNQIAVGQAEWRHLAVPDVPGSMEFDLNKNWQLACECMRQALHNAGIAPEYIAAVSACSMREGIVLYNNEGAPIWACANVDARAAREVSELKELHNNTFENEVYRATGQTLALSAIPRLLWLAHHRSDIYRQASTITMISDWLAYMLSGELAVDPSNAGTTGLLDLTTRDWKPALLDMAGLRADILSPVKETGTLLGVVSSQAAELCGLKAGTPVVVGGGDVQLGCLGLGVVRPAQTAVLGGTFWQQVVNLAAPVTDPEMNVRVNPHVIPGMVQAESISFFTGLTMRWFRDAFCAEEKLIAERLGIDTYTLLEEMASRVPPGSWGVMPIFSDRMRFKTWYHAAPSFINLSIDPDKCNKATLFRALEENAAIVSACNLQQIADFSNIHPSSLVFAGGGSKGKLWSQILADVSGLPVNIPVVKEATALGCAIAAGVGAGIFSSMAETGERLVRWERTHTPDPEKHELYQDSRDKWQAVYQDQLGLVDHGLTTSLWKAPGL | 4.78 ± 0.065 h | 1.55 ± 0.35 h | 2.92 ± 0.031 h |  | 2.49 h | 1.27 h | 2.83 ± 0.42 h |  |  |  | 1.36 h | 
7 | MRKNTYAMRYVAGQPAERILPPGSFASIGQALPPGEPLSTEERIRILVWNIYKQQRAEWLSVLKNYGKDAHLVLLQEAQTTPELVQFATANYLAADQVPAFVLPQHPSGVMTLSAAHPVYCCPLREREPILRLAKSALVTVYPLPDTRLLMVVNIHAVNFSLGVDVYSKQLLPIGDQIAHHSGPVIMAGDFNAWSRRRMNALYRFAREMSLRQVRFTDDQRRRAFGRPLDFVFYRGLNVSEASVLVTRASDHNPLLVEFSPGKPDK [P0A8U2] |  | 1.62 ± 0.14 h | 3.514 ± 0.023 h | 3.83 ± 0.2 h | 3.2 ± 0.29 h | 2.65 ± 0.35 h | 2.47 ± 0.035 h | 2.76 ± 0.092 h | 4.14 ± 0.052 h | 2.42 ± 0.055 h | 4.41 h | 2.48 ± 0.64 h
8 | MLSRRGHRLSRFRKNKRRLRERLRQRIFFRDKVVPEAMEKPRVLVLTGAGISAESGIRTFRAADGLWEEHRVEDVATPEGFDRDPELVQAFYNARRRQLQQPEIQPNAAHLALAKLQDALGDRFLLVTQNIDNLHERAGNTNVIHMHGELLKVRCSQSGQVLDWTGDVTPEDKCHCCQFPAPLRPHVVWFGEMPLGMDEIYMALSMADIFIAIGTSGHVYPAAGFVHEAKLHGAHTVELNLEPSQVGNEFAEKYYGPASQVVPEFVEKLLKGLKAGSIA | 5.1 ± 0.51 h | 2.64 ± 0.21 h | 10.2 ± 0.35 h | 10.5 ± 1.2 h | 5.77 ± 0.77 h | 4.15 ± 0.36 h | 4.79 ± 0.29 h | 4.37 ± 0.24 h | 7.71 ± 0.99 h | 5.56 ± 0.39 h | 4.14 ± 0.054 h | 4.03 ± 0.65 h

Source: the supplement of paper PMC11246515
